B1: Isoform 2 of ATP-binding cassette sub-family B member 8, mitochondrial (Homo sapiens), Q9NUT2-2 (parent)
chain: MLVHLFRVGIRGGPFPGRLLPPLRFQTFSAVRYSDGYRSSSLLRAVAHLRSQLWAHLPRAPLAPRWSPSAWCWVGGALLGPMVLSKHPHLCLVALCEAEEAPPASSTPHVVGSRFNWKLFWQFLHPHLLVLGVAVVLALGAALVNVQIPLLLGQLVEVVAKYTRDHVGSFMTESQNLSTHLLILYGVQGLLTFGYLVLLSHVGERMAVDMRRALFSSLLRQDITFFDANKTGQLVSRLTTDVQEFKSSFKLVISQGLRSCTQVAGCLVSLSMLSTRLTLLLMVATPALMGVGTLMGSGLRKLSRQCQEQIARAMGVADEALGNVRTVRAFAMEQREEERYGAELEACRCRAEELGRGIALFQGLSNIAFNCMVLGTLFIGGSLVAGQQLTGGDLMSFLVASQTVQRSMANLSVLFGQVVRGLSAGARVFEYMALNPCIPLSGGCCVPKEQLRGSVTFQNVCFSYPCRPGFEVLKDFTLTLPPGKIVALVGQSGGGKTTVASLLERFYDPTAGVVMLDGRDLRTLDPSWLRGQVVGFISQEPVLFGTTIMENIRFGKLEASDEEVYTAAREANAHEFITSFPEGYNTVVGERGTTLSGGQKQRLAIARALIKQPTVLILDEATSALDAESERVVQEALDRASAGRTVLVIAHRLSTVRGAHCIVVMADGRVWEAGTHEELLKKGGLYAELIRRQALDAPRTAAPPPKKPEGPRSHQHKS
partner: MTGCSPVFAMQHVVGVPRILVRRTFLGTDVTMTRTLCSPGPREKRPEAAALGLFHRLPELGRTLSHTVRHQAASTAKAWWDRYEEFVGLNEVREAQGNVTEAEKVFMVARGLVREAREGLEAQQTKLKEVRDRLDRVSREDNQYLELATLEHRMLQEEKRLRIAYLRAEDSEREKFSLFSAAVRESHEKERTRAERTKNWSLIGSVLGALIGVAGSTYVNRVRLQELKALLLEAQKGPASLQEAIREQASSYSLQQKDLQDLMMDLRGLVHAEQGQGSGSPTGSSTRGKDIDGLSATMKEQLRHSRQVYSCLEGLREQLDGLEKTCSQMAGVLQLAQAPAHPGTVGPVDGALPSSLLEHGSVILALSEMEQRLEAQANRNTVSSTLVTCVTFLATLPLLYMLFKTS

Variants of: B1
Details: with Ccdc51, Q3URS9-1

| Variant | effect of a mutation on the interaction |
| --- | --- |
| K496A | with no effect |

From IntAct's records for PubMed 31435016
